Measurements taken from publication PMC6710095.
Like-named read-outs stand apart in the source and are kept apart here.

How the values were obtained:
[1] = target: C-terminal fragment of TraF/VirB10 in the D1 complex (residues 1-129 removed) (plasmid pKM101); assay: negative stain electron microscopy
[2] = target: TraF/VirB10 with C-terminal Strep-tag (TraF/VirB10 C-ST) (plasmid pKM101); assay: negative stain electron microscopy
[3] = target: TraF/VirB10 with C-terminal Strep-tag (TraF/VirB10 C-ST) (plasmid pKM101)
[4] = target: TraN/VirB7 (pKM101-encoded T4SS lipoprotein) (plasmid pKM101); assay: negative stain electron microscopy
[5] = target: TraO/VirB9 (pKM101-encoded T4SS) (plasmid pKM101); assay: negative stain electron microscopy

Work on “C-terminal fragment of TraF/VirB10 in the D1 complex (residues 1-129 removed) (domain or fragment)” yielded a stoichiometry N [1] of 14.

“TraF/VirB10 with C-terminal Strep-tag (TraF/VirB10 C-ST) (natural protein)” was tested, and the stoichiometry N [2] was 14.

With “TraN/VirB7 (pKM101-encoded T4SS lipoprotein) (natural protein)” the stoichiometry N [3] was 1 and the stoichiometry N [4] was 14.

For “TraO/VirB9 (pKM101-encoded T4SS) (natural protein)”, the stoichiometry N [3] was 1 and the stoichiometry N [5] was 14.
